Values quoted from earlier work in paper PMC2818086.

System: His64
Assay: kinetics
Conditions: 25 °C; free enzyme in solution during catalysis (zinc-loaded)

Substance	pKa
Carbonic anhydrase II (HCA II) Y7F (Homo sapiens; Y7F)	6.0
Carbonic anhydrase II (HCA II) N62D (Homo sapiens; N62D)	8.4
Carbonic anhydrase II (HCA II) N62V (Homo sapiens; N62V)	5.9
Carbonic anhydrase II (HCA II) N62T (Homo sapiens; N62T)	7.0
Carbonic anhydrase II (HCA II), wild type (Homo sapiens)	7.2
Carbonic anhydrase II (HCA II) N62A (Homo sapiens; N62A)	6.2
Carbonic anhydrase II (HCA II) N62L (Homo sapiens; N62L)	6.0
Carbonic anhydrase II (HCA II) N67L (Homo sapiens; N67L)	7.5
